# B1: ROCK1 (protein)
# chain: MSTGDSFETRFEKMDNLLRDPKSEVNSDCLLDGLDALVYDLDFPALRKNKNIDNFLSRYKDTINKIRDLRMKAEDYEVVKVIGRGAFGEVQLVRHKSTRKVYAMKLLSKFEMIKRSDSAFFWEERDIMAFANSPWVVQLFYAFQDDRYLYMVMEYMPGGDLVNLMSNYDVPEKWARFYTAEVVLALDAIHSMGFIHRDVKPDNMLLDKSGHLKLADFGTCMKMNKEGMVRCDTAVGTPDYISPEVLKSQGGDGYYGRECDWWSVGVFLYEMLVGDTPFYADSLVGTYSKIMNHKNSLTFPDDNDISKEAKNLICAFLTDREVRLGRNGVEEIKRHLFFKNDQWAWETLRDTVAPVVPDLSSDIDTSNFDDLEEDKGEEETFPIPKAFVGNQLPFVGFTYYSNRRYLSSANPNDNRTSSNADKSLQESLQKTIYKLEEQLHNEMQLKDEMEQKCRTSNIKLDKIMKELDEEGNQRRNLESTVSQIEKEKMLLQHRINEYQRKAEQENEKRRNVENEVSTLKDQLEDLKKVSQNSQL
# modifications: left off: a dimerising Fc or GST
# B2: RPS6KA2(RSK3) (protein)
# chain: MDLSMKKFAVRRFFSVYLRRKSRSKSSSLSRLEEEGVVKEIDISHHVKEGFEKADPSQFELLKVLGQGSYGKVFLVRKVKGSDAGQLYAMKVLKKATLKVRDRVRSKMERDILAEVNHPFIVKLHYAFQTEGKLYLILDFLRGGDLFTRLSKEVMFTEEDVKFYLAELALALDHLHSLGIIYRDLKPENILLDEEGHIKITDFGLSKEAIDHDKRAYSFCGTIEYMAPEVVNRRGHTQSADWWSFGVLMFEMLTGSLPFQGKDRKETMALILKAKLGMPQFLSGEAQSLLRALFKRNPCNRLGAGIDGVEEIKRHPFFVTIDWNTLYRKEIKPPFKPAVGRPEDTFHFDPEFTARTPTDSPGVPPSANAHHLFRGFSFVASSLIQEPSQQDLHKVPVHPIVQQLHGNNIHFTDGYEIKEDIGVGSYSVCKRCVHKATDTEYAVKIIDKSKRDPSEEIEILLRYGQHPNIITLKDVYDDGKFVYLVMELMRGGELLDRILRQRYFSEREASDVLCTITKTMDYLHSQGVVHRDLKPSNILYRDESGSPESIRVCDFGFAKQLRAGNGLLMTPCYTANFVAPEVLKRQGYDAACDIWSLGILLYTMLAGFTPFANGPDDTPEEILARIGSGKYALSGGNWDSISDAAKDVVSKMLHVDPHQRLTAMQVLKHPWVVNREYLSPNQLSRQDVHLVKGAMAATYFALNRTPQAPRLEPVLSSNLAQRRGMKRLTSTRL
# modifications: left off: small tags and cut ends
# B3: PRKX (protein)
# chain: MEAPGLAQAAAAESDSRKVAEETPDGAPALCPSPEALSPEPPVYSLQDFDTLATVGTGTFGRVHLVKEKTAKHFFALKVMSIPDVIRLKQEQHVHNEKSVLKEVSHPFLIRLFWTWHDERFLYMLMEYVPGGELFSYLRNRGRFSSTTGLFYSAEIICAIEYLHSKEIVYRDLKPENILLDRDGHIKLTDFGFAKKLVDRTWTLCGTPEYLAPEVIQSKGHGRAVDWWALGILIFEMLSGFPPFFDDNPFGIYQKILAGKIDFPRHLDFHVKDLIKKLLVVDRTRRLGNMKNGANDVKHHRWFRSVDWEAVPQRKLKPPIVPKIAGDGDTSNFETYPENDWDTAAPVPQKDLEIFKNF
# modifications: left off: a dimerising Fc or GST
# B4: PRKCN(PKD3) (protein)
# chain: MSANNSPPSAQKSVLPTAIPAVLPAASPCSSPKTGLSARLSNGSFSAPSLTNSRGSVHTVSFLLQIGLTRESVTIEAQELSLSAVKDLVCSIVYQKFPECGFFGMYDKILLFRHDMNSENILQLITSADEIHEGDLVEVVLSALATVEDFQIRPHTLYVHSYKAPTFCDYCGEMLWGLVRQGLKCEGCGLNYHKRCAFKIPNNCSGVRKRRLSNVSLPGPGLSVPRPLQPEYVALPSEESHVHQEPSKRIPSWSGRPIWMEKMVMCRVKVPHTFAVHSYTRPTICQYCKRLLKGLFRQGMQCKDCKFNCHKRCASKVPRDCLGEVTFNGEPSSLGTDTDIPMDIDNNDINSDSSRGLDDTEEPSPPEDKMFFLDPSDLDVERDEEAVKTISPSTSNNIPLMRVVQSIKHTKRKSSTMVKEGWMVHYTSRDNLRKRHYWRLDSKCLTLFQNESGSKYYKEIPLSEILRISSPRDFTNISQGSNPHCFEIITDTMVYFVGENNGDSSHNPVLAATGVGLDVAQSWEKAIRQALMPVTPQASVCTSPGQGKDHKDLSTSISVSNCQIQENVDISTVYQIFADEVLGSGQFGIVYGGKHRKTGRDVAIKVIDKMRFPTKQESQLRNEVAILQNLHHPGIVNLECMFETPERVFVVMEKLHGDMLEMILSSEKSRLPERITKFMVTQILVALRNLHFKNIVHCDLKPENVLLASAEPFPQVKLCDFGFARIIGEKSFRRSVVGTPAYLAPEVLRSKGYNRSLDMWSVGVIIYVSLSGTFPFNEDEDINDQIQNAAFMYPPNPWREISGEAIDLINNLLQVKMRKRYSVDKSLSHPWLQDYQTWLDLREFETRIGERYITHESDDARWEIHAYTHNLVYPKHFIMAPNPDDMEEDP
# modifications: left off: a dimerising Fc or GST
# B5: EPHB3 (protein)
# chain: CLRKQRHGSDSEYTEKLQQYIAPGMKVYIDPFTYEDPNEAVREFAKEIDVSCVKIEEVIGAGEFGEVCRGRLKQPGRREVFVAIKTLKVGYTERQRRDFLSEASIMGQFDHPNIIRLEGVVTKSRPVMILTEFMENCALDSFLRLNDGQFTVIQLVGMLRGIAAGMKYLSEMNYVHRDLAARNILVNSNLVCKVSDFGLSRFLEDDPSDPTYTSSLGGKIPIRWTAPEAIAYRKFTSASDVWSYGIVMWEVMSYGERPYWDMSNQDVINAVEQDYRLPPPMDCPTALHQLMLDCWVRDRNLRPKFSQIVNTLDKLIRNAASLKVIASAQSGMSQPLLDRTVPDYTTFTTVGDWLDAIKMGRYKESFVSAGFASFDLVAQMTAEDLLRIGVTLAGHQKKILSSIQDMRLQMNQTLPVQV
# modifications: left off: a dimerising Fc or GST
# B6: ROCK2 (protein)
# chain: MSRPPPTGKMPGAPETAPGDGAGASRQRKLEALIRDPRSPINVESLLDGLNSLVLDLDFPALRKNKNIDNFLNRYEKIVKKIRGLQMKAEDYDVVKVIGRGAFGEVQLVRHKASQKVYAMKLLSKFEMIKRSDSAFFWEERDIMAFANSPWVVQLFYAFQDDRYLYMVMEYMPGGDLVNLMSNYDVPEKWAKFYTAEVVLALDAIHSMGLIHRDVKPDNMLLDKHGHLKLADFGTCMKMDETGMVHCDTAVGTPDYISPEVLKSQGGDGFYGRECDWWSVGVFLYEMLVGDTPFYADSLVGTYSKIMDHKNSLCFPEDAEISKHAKNLICAFLTDREVRLGRNGVEEIRQHPFFKNDQWHWDNIRETAAPVVPELSSDIDSSNFDDIEDDKGDVETFPIPKAFVGNQLPFIGFTYYRENLLLSDSPSCRETDSIQSRKNEESQEIQKKLYTLEEHLSNEMQAKEELEQKCKSVNTRLEKTAKELEEEITLRKSVESALRQLEREKALLQHKNAEYQRKADHEADKKRNLENDVNSLKDQLEDLKKRNQNSQI
# modifications: left off: a dimerising Fc or GST
# B7: RPS6KA1(RSK1) (protein)
# chain: MPLAQLKEPWPLMELVPLDPENGQTSGEEAGLQPSKDEGVLKEISITHHVKAGSEKADPSHFELLKVLGQGSFGKVFLVRKVTRPDSGHLYAMKVLKKATLKVRDRVRTKMERDILADVNHPFVVKLHYAFQTEGKLYLILDFLRGGDLFTRLSKEVMFTEEDVKFYLAELALGLDHLHSLGIIYRDLKPENILLDEEGHIKLTDFGLSKEAIDHEKKAYSFCGTVEYMAPEVVNRQGHSHSADWWSYGVLMFEMLTGSLPFQGKDRKETMTLILKAKLGMPQFLSTEAQSLLRALFKRNPANRLGSGPDGAEEIKRHVFYSTIDWNKLYRREIKPPFKPAVAQPDDTFYFDTEFTSRTPKDSPGIPPSAGAHQLFRGFSFVATGLMEDDGKPRAPQAPLHSVVQQLHGKNLVFSDGYVVKETIGVGSYSECKRCVHKATNMEYAVKVIDKSKRDPSEEIEILLRYGQHPNIITLKDVYDDGKHVYLVTELMRGGELLDKILRQKFFSEREASFVLHTIGKTVEYLHSQGVVHRDLKPSNILYVDESGNPECLRICDFGFAKQLRAENGLLMTPCYTANFVAPEVLKRQGYDEGCDIWSLGILLYTMLAGYTPFANGPSDTPEEILTRIGSGKFTLSGGNWNTVSETAKDLVSKMLHVDPHQRLTAKQVLQHPWVTQKDKLPQSQLSHQDLQLVKGAMAATYSALNSSKPTPQLKPIESSILAQRRVRKLPSTTL
# modifications: left off: small tags and cut ends
# B8: PRKD2(PKD2) (protein)
# chain: MATAPSYPAGLPGSPGPGSPPPPGGLELQSPPPLLPQIPAPGSGVSFHIQIGLTREFVLLPAASELAHVKQLACSIVDQKFPECGFYGLYDKILLFKHDPTSANLLQLVRSSGDIQEGDLVEVVLSASATFEDFQIRPHALTVHSYRAPAFCDHCGEMLFGLVRQGLKCDGCGLNYHKRCAFSIPNNCSGARKRRLSSTSLASGHSVRLGTSESLPCTAEELSRSTTELLPRRPPSSSSSSSASSYTGRPIELDKMLLSKVKVPHTFLIHSYTRPTVCQACKKLLKGLFRQGLQCKDCKFNCHKRCATRVPNDCLGEALINGDVPMEEATDFSEADKSALMDESEDSGVIPGSHSENALHASEEEEGEGGKAQSSLGYIPLMRVVQSVRHTTRKSSTTLREGWVVHYSNKDTLRKRHYWRLDCKCITLFQNNTTNRYYKEIPLSEILTVESAQNFSLVPPGTNPHCFEIVTANATYFVGEMPGGTPGGPSGQGAEAARGWETAIRQALMPVILQDAPSAPGHAPHRQASLSISVSNSQIQENVDIATVYQIFPDEVLGSGQFGVVYGGKHRKTGRDVAVKVIDKLRFPTKQESQLRNEVAILQSLRHPGIVNLECMFETPEKVFVVMEKLHGDMLEMILSSEKGRLPERLTKFLITQILVALRHLHFKNIVHCDLKPENVLLASADPFPQVKLCDFGFARIIGEKSFRRSVVGTPAYLAPEVLLNQGYNRSLDMWSVGVIMYVSLSGTFPFNEDEDINDQIQNAAFMYPASPWSHISAGAIDLINNLLQVKMRKRYSVDKSLSHPWLQEYQTWLDLRELEGKMGERYITHESDDARWEQFAAEHPLPGSGLPTDRDLGGACPPQDHDMQGLAERISVL
# modifications: left off: a dimerising Fc or GST
# Tested on: kinases of Table 6 on Myelin Basic Protein (MBP)
# Test: Kinase assay using MBP substrate, ProQ Diamond stain (Table 6)
# Format: biochemical
# Settings: kinase printed on MBP-coated slide; 20 uM ATP, 30° C.; ProQ Diamond Microarray Stain; graded Strong/Weak/Negative
# Summary of the method: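 Bovine dephosphorylated MBP coated on aldehyde- or epoxy-glass slides, kinases printed on top; reaction buffer pH 7.5 with 4 mM MgCl2, 20 uM ATP, 5% DMSO, ± inhibitor, at 30° C. Phosphorylation detected by ProQ Diamond stain, 30 min in dark.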
row,Molecule,MBP Kinase Activity
1,B1,Strong
2,B2,Negative
3,B3,Negative
4,B4,Weak
5,B5,Strong
6,B6,Strong
7,B7,Strong
8,B8,Strong
